Data taken from patent US20170008955A1 (CNJ, published 2017).

How the values were obtained:
Aβ42 oligomers [1] = biological target: T1, Aβ42 oligomers (UniProt P05067 672-713); assay: Biacore (SPR), Aβ oligomer preparation AβO1 (HQ AβO1); upper end of the range
T1 construct: domain: Aβ42; immobilized preparation containing monomers, low and high molecular weight oligomers; also called Amyloid beta oligomers; Aβ oligomers
Experimental: (§1) Using a Biacore™ 3000, Aβ42 oligomers were immobilized (containing monomers, low and high molecular weight oligomers) and BSA (reference surface) on 4 separate flow cells of a biosensorchip. Murine 5E3 or humanized 5E3 IgG1, IgG2, and IgG4 were then diluted, sequentially injected over the different immobilized peptides and antibody binding monitored in real time. Binding data was collected by sequentially injecting buffer blanks, 1/10 dilutions of m5E3 or 1 uM dilutions of hu5E3 control over separate flow cells immobilized with BSA or Aβ42 oligomer on another biosensor chip at a flow rate of 10 μl/minute. Association was allowed for 200 seconds, followed by dissociation for 500 seconds and binding responses collected 10 seconds before the end of the […]. All binding responses were double-referenced by subtracting buffer blanks and BSA reference surface binding.
(§2) Results: As shown in FIG. 9A and FIG. 9B, the humanized 5E3 isotypes bound to the Aβ42 oligomer preparation. Affinity constants were determined for hu5E3 IgG1 Aβ42 oligomer preparations.

Aβ42 oligomers [2] = biological target: T1, Aβ42 oligomers; assay: Biacore (SPR), Aβ oligomer preparation AβO1 (HQ AβO1); lower end of the range
Experimental: as §1, §2

cSNK:BSA conjugate [3] = biological target: T2, cSNK:BSA conjugate (bovine, head-to-tail cyclized; conjugated to BSA carrier); assay: BLI 2:1 fit, site 2 (kdis2); 3.13 nM row
T2 construct: also called BSA-cSNK
T2 sequence (P02769 25-607 limits assumed): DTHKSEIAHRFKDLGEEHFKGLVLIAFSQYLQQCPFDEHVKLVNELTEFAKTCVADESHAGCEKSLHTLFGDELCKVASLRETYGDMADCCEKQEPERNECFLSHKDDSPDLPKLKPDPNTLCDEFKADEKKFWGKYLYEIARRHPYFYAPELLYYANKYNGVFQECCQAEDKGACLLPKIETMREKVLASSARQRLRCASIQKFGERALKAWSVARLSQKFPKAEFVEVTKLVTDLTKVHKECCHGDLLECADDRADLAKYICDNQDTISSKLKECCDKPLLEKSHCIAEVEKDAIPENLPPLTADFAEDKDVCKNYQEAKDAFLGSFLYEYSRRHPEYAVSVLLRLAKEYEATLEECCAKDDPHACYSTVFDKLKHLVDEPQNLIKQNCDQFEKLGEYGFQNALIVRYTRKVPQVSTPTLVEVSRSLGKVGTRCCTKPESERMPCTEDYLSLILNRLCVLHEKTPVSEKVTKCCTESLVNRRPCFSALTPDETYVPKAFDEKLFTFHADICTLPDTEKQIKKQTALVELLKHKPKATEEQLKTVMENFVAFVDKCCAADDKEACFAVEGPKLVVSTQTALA
Experimental: (§3) Biolayer interferometry (Octet […], ForteBio) was used to qualitatively/quantitatively assess the interactions between humanized versions of 5E3 and cSNK:BSA conjugate. […] MAbs were loaded onto sensors and then washed in PBST. Each sensor was associated with one of several cSNK:BSA standards (100 nM to 0 nM) and then washed in PBST. Data was processed statistically using ForteBio Data Analysis software to determine the strength of antigen-antibody binding (KD). For each mAb analyzed, a 2:1 model provided the “best fit”.

cSNK:BSA conjugate [4] = biological target: T2, cSNK:BSA conjugate; assay: BLI 2:1 fit, site 2 (KD2); 50 nM row
Experimental: as §3

Ovalbumin [5] = biological target: T3, Ovalbumin (UniProt P01012 2-386); assay: Western blot of BSA, BSA-cSNK and ovalbumin probed with hu5E3-IgG1
T3 sequence (looked up): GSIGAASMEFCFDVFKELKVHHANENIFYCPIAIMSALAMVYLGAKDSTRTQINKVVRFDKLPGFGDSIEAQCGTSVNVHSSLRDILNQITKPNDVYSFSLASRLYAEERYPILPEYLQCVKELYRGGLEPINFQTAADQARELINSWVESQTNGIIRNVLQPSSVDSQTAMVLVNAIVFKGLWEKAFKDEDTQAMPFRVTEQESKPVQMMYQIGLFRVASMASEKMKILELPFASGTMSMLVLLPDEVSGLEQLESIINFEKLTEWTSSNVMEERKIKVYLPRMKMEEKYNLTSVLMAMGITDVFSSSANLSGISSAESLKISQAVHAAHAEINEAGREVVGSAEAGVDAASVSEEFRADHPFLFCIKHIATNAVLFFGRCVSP

cSNK:BSA conjugate [6] = biological target: T2, cSNK:BSA conjugate; assay: BLI 2:1 fit, site 1; 25 nM row
Experimental: as §3

cSNK:BSA conjugate [7] = biological target: T2, cSNK:BSA conjugate; assay: BLI 2:1 fit, site 2 (kon2); 50 nM row
Experimental: as §3

cSNK:BSA conjugate [8] = biological target: T2, cSNK:BSA conjugate; assay: BLI 2:1 fit, site 1; 12.5 nM row
Experimental: as §3

cSNK:BSA conjugate [9] = biological target: T2, cSNK:BSA conjugate; assay: BLI 2:1 fit, site 1 (KD1); 50 nM row
Experimental: as §3

cSNK:BSA conjugate [10] = biological target: T2, cSNK:BSA conjugate; assay: BLI 2:1 fit, site 1 (KD1); 6.25 nM row
Experimental: as §3

cSNK:BSA conjugate [11] = biological target: T2, cSNK:BSA conjugate; assay: BLI 2:1 fit, site 1 (KD1); 3.13 nM row
Experimental: as §3

cSNK:BSA conjugate [12] = biological target: T2, cSNK:BSA conjugate; assay: BLI 2:1 fit, site 1 (KD1); 100 nM row
Experimental: as §3

cSNK:BSA conjugate [13] = biological target: T2, cSNK:BSA conjugate; assay: BLI 2:1 fit, site 2 (kon2); 100 nM row
Experimental: as §3

cSNK:BSA conjugate [14] = biological target: T2, cSNK:BSA conjugate; assay: BLI 2:1 fit, site 1 (KD1); 1.56 nM row
Experimental: as §3

cSNK:BSA conjugate [15] = biological target: T2, cSNK:BSA conjugate; assay: BLI 2:1 fit, site 1 (KD1); 12.5 nM row
Experimental: as §3

cSNK:BSA conjugate [16] = biological target: T2, cSNK:BSA conjugate; assay: BLI (Octet RED96), 2:1 kinetics, KD2, summary table; KD2, summary table
Experimental: as §3
Table 7 summarizes the affinity constants of humanized 5E3 IgG1, IgG2 and IgG4 constructs. The KD ranges were determined using 2:1 kinetics of binding of analyte (BSA-cSNK) in solution to two different binding sites on the surface (immobilized bivalent, monospecific 5E3) in comparison to murine 5E3 using biolayer interferometry (Octet RED96).

Ovalbumin [17] = biological target: T3, Ovalbumin; assay: Western blot of BSA, BSA-cSNK and ovalbumin probed with m5E3
Experimental: (§4) A 4-12% gradient SDS-PAGE gel was run with cSNK-BSA. The gel was then transferred to a nitrocellulose membrane. The next day the mAbs (1° Ab) were diluted to 2 μg/ml to 5 μg/ml depending on the antibody, and used to probe the membrane at room temperature (RT). The membranes were then probed with anti-mouse IgG-HRP (2° Ab).

Ovalbumin [18] = biological target: T3, Ovalbumin; assay: Western immunoblot, FIGS. 3A-D
Experimental: as §4

T1 sequence (P05067 672-713 limits assumed): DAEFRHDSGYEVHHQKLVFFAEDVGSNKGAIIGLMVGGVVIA

B1: hu5E3-IgG1 (antibody, V domains shown)
VH: QVQLQQSGPEVKKPGASVKISCKASGYIFTSYYIQWVIHAPGQGLEWIGWIYPGNVNTKYNEKFKGKATLTADKSSSTAYMELSSLTSEDTAVYFCARMDYEAHYWGQGTTVTVSS
VL: DIQMTQSPSSLSASVGDRVTITCRASQEISGYLTWLQQKPEGAIKRLIYAASTLDSGVPKRFSGSRSGSDYSLTISSLQPEDFATYNCLQYANYPRTFGGGTKLEIK
notes: human IgG1/kappa; also called humanized 5E3 IgG1; IHA variant
A Kd (Aβ42 oligomers [1]) of no more than 3290 µM, a Kd (Aβ42 oligomers [2]) of no less than 182 µM and a koff (cSNK:BSA conjugate [3]) of 0.012 s⁻¹ were found for B1 in this work. The Kd (cSNK:BSA conjugate [4]) was 0.00182 µM, the binding result (Ovalbumin [5]) was “no binding” and the Kd (cSNK:BSA conjugate [6]) was 0.000463 µM. It also gave a koff (cSNK:BSA conjugate [6]) of 0.000825 s⁻¹, a kon (cSNK:BSA conjugate [6]) of 1.78e+06 M⁻¹ s⁻¹ and a kon (cSNK:BSA conjugate [7]) of 6.56e+06 M⁻¹ s⁻¹. It also gave a Kd (cSNK:BSA conjugate [8]) of 0.000463 µM, a koff (cSNK:BSA conjugate [8]) of 0.000825 s⁻¹ and a kon (cSNK:BSA conjugate [8]) of 1.78e+06 M⁻¹ s⁻¹.

B2: rehu5E3-IgG4 (antibody, V domains shown)
VH: QVQLQQSGPEVVKPGASVKISCKASGYIFTSYYIQWVIHAPGQGLEWIGWIYPGNVNTKYNEKFKGKATLTADKSSSTAYMELSSLRSEDSAVYFCARMDYEAHYWGQGTLVTVSS
VL: DIQMTQSPSSLSASLGDRVTLTCRASQEISGYLTWLQQKPEKAIKRLIYAASTLDSGVPKRFSGSRSGSDYTLTISSLQPEDFADYNCLQYANYPRTFGGGTKLEIK
notes: human IgG4/kappa; also called IgG4 rehu version
A Kd (cSNK:BSA conjugate [9]) of 0.000557 µM, a Kd (cSNK:BSA conjugate [10]) of 0.000557 µM and a koff (cSNK:BSA conjugate [3]) of 0.0175 s⁻¹ were found for B2 in this work. It also gave a Kd (cSNK:BSA conjugate [11]) of 0.000557 µM, a Kd (cSNK:BSA conjugate [4]) of 0.00394 µM and a Kd (cSNK:BSA conjugate [12]) of 0.000557 µM. The kon (cSNK:BSA conjugate [13]) was 4.44e+06 M⁻¹ s⁻¹, the koff (cSNK:BSA conjugate [6]) was 0.000386 s⁻¹ and the kon (cSNK:BSA conjugate [6]) was 692000 M⁻¹ s⁻¹. It also gave a kon (cSNK:BSA conjugate [7]) of 4.44e+06 M⁻¹ s⁻¹, a koff (cSNK:BSA conjugate [8]) of 0.000386 s⁻¹ and a kon (cSNK:BSA conjugate [8]) of 692000 M⁻¹ s⁻¹. It also gave a Kd (cSNK:BSA conjugate [14]) of 0.000557 µM and a Kd (cSNK:BSA conjugate [15]) of 0.000557 µM.

B3: murine monoclonal antibody 5E3 (antibody, V domains shown)
VH: QVQLQQSGPELVKPGASVRISCKASGYIFTSYYIQWVIHRPGQGLEWIGWIYPGNVNTKYNEKFKGKATLTADKSSSTAYMQLSRLTSEDSAVYFCARMDYEAHYWGQGTTLTVSS
VL: DIQMTQSPSSLSASLGERVSLTCRASQEISGYLTWLQQKPDGTIKRLIYAASTLDSGVPKRFSGSRSGSDYSLTISSLESEDFADYNCLQYANYPRTFGGGTKLEIK
notes: mouse antibody of the 5E3 hybridoma; also called murine 5E3; m5E3
A koff (cSNK:BSA conjugate [3]) of 0.0226 s⁻¹, a Kd (cSNK:BSA conjugate [4]) of 0.00159 µM and a Kd (cSNK:BSA conjugate [16]) of 0.00159 µM were found for B3 in this work. The kon (cSNK:BSA conjugate [13]) was 1.42e+07 M⁻¹ s⁻¹, the binding result (Ovalbumin [17]) was “no binding” and the Kd (cSNK:BSA conjugate [6]) was 0.00033 µM. The koff (cSNK:BSA conjugate [6]) was 0.000428 s⁻¹, the kon (cSNK:BSA conjugate [6]) was 1.29e+06 M⁻¹ s⁻¹ and the kon (cSNK:BSA conjugate [7]) was 1.42e+07 M⁻¹ s⁻¹. The Kd (cSNK:BSA conjugate [8]) was 0.00033 µM, the koff (cSNK:BSA conjugate [8]) was 0.000428 s⁻¹ and the kon (cSNK:BSA conjugate [8]) was 1.29e+06 M⁻¹ s⁻¹.

B4: hu5E3-IgG2 (antibody, V domains shown)
VH: QVQLQQSGPEVKKPGASVKISCKASGYIFTSYYIQWVIHAPGQGLEWIGWIYPGNVNTKYNEKFKGKATLTADKSSSTAYMELSSLTSEDTAVYFCARMDYEAHYWGQGTTVTVSS
VL: DIQMTQSPSSLSASVGDRVTITCRASQEISGYLTWLQQKPEGAIKRLIYAASTLDSGVPKRFSGSRSGSDYSLTISSLQPEDFATYNCLQYANYPRTFGGGTKLEIK
notes: human IgG2/kappa; also called humanized 5E3 IgG2
A koff (cSNK:BSA conjugate [3]) of 0.0338 s⁻¹, a Kd (cSNK:BSA conjugate [4]) of 0.00639 µM and a kon (cSNK:BSA conjugate [13]) of 5.28e+06 M⁻¹ s⁻¹ were found for B4 in this work. It also gave a Kd (cSNK:BSA conjugate [6]) of 0.00118 µM, a koff (cSNK:BSA conjugate [6]) of 0.000762 s⁻¹ and a kon (cSNK:BSA conjugate [6]) of 644000 M⁻¹ s⁻¹. The kon (cSNK:BSA conjugate [7]) was 5.28e+06 M⁻¹ s⁻¹, the binding result (Ovalbumin [18]) was “no binding” and the Kd (cSNK:BSA conjugate [8]) was 0.00118 µM. For the same binder, the koff (cSNK:BSA conjugate [8]) was 0.000762 s⁻¹ and the kon (cSNK:BSA conjugate [8]) was 644000 M⁻¹ s⁻¹.

B5: hu5E3-IgG4 (antibody, V domains shown)
VH: QVQLQQSGPEVKKPGASVKISCKASGYIFTSYYIQWVIHAPGQGLEWIGWIYPGNVNTKYNEKFKGKATLTADKSSSTAYMELSSLTSEDTAVYFCARMDYEAHYWGQGTTVTVSS
VL: DIQMTQSPSSLSASVGDRVTITCRASQEISGYLTWLQQKPEGAIKRLIYAASTLDSGVPKRFSGSRSGSDYSLTISSLQPEDFATYNCLQYANYPRTFGGGTKLEIK
notes: human IgG4/kappa; also called humanized 5E3 IgG4
A koff (cSNK:BSA conjugate [3]) of 0.0229 s⁻¹, a Kd (cSNK:BSA conjugate [4]) of 0.00304 µM and a kon (cSNK:BSA conjugate [13]) of 7.52e+06 M⁻¹ s⁻¹ were found for B5 in this work. The Kd (cSNK:BSA conjugate [6]) was 0.000633 µM, the koff (cSNK:BSA conjugate [6]) was 0.00055 s⁻¹ and the kon (cSNK:BSA conjugate [6]) was 868000 M⁻¹ s⁻¹. The kon (cSNK:BSA conjugate [7]) was 7.52e+06 M⁻¹ s⁻¹, the binding result (Ovalbumin [18]) was “no binding” and the Kd (cSNK:BSA conjugate [8]) was 0.000633 µM. It also gave a koff (cSNK:BSA conjugate [8]) of 0.00055 s⁻¹ and a kon (cSNK:BSA conjugate [8]) of 868000 M⁻¹ s⁻¹.
